Measurements: patent publication US20230174596A1 (published 2023)

T1: hVEGF-A (8-109) (human, UniProt P15692 214-315)
T1 construct: residue numbers count on mature VEGF-A; dimer
T1 sequence (looked up): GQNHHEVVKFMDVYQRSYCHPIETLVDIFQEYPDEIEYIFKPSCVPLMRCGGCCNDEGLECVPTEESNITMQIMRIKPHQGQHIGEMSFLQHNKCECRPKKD

T2: human VEGF-A (human, UniProt P15692-4 34-135, limits assumed)
T2 sequence (looked up): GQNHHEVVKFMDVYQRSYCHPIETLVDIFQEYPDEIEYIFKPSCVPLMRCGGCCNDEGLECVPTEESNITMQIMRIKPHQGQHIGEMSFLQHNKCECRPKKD

B1: LRP6_CKP1 (designed binder)
chain: GCRTNRVKGGCKQDSDCLAGCVCGPNGFCG
B2: LRP6_CKP2 (designed binder)
chain: GCVNRVRGCKQDSDCLAGCVCSGGRDCG
B3: LRP6_CKP3 (designed binder)
chain: GCMNHVKARRCKQDSDCLAGCVCGPNGFCG
B4: LRP6_CKP4 (designed binder)
chain: GCRSVNKICKQDSDCLAGCVCGSSRNCG
B5: LRP6_CKP5 (designed binder)
chain: GCVNKIKGCKQDSDCLAGCVCGVEGRCG
B6: LRP6_CKP6 (designed binder)
chain: GCRNSIKRCKQNSDCLAGCVCSVGHGCG
B7: LRP6_CKP7 (designed binder)
chain: GCVSNRVNKGCKQDSDCLAGCVCGPNGFCG
B8: LRP6_CKP8 (designed binder)
chain: GCRGNIIKCKQDSDCLAGCVCNESRGCG
B9: LRP6_CKP9 (designed binder)
chain: GCRSGNTIRKRECKQDSDCLAGCVCGGPGGCG
B10: LRP6_CKP10 (designed binder)
chain: GCASSNSIRQGWCKQDSDCLAGCVCGPKSNCG
B11: LRP6_CKP11 (designed binder)
chain: GCRSNRIRCKQDSDCLAGCVCYGHGDCG
B12: LRP6_CKP12 (designed binder)
chain: GCRSNKLREARGCKQDSDCLAGCVCGSRQDCG
B13: LRP6_CKP13 (designed binder)
chain: GCVNSVKRCKQDSDCLAGCVCSRGVNCG
B14: LRP6_CKP14 (designed binder)
chain: GCGSNKIRPRCKQDSDCLAGCVCGPNDFCG
B15: LRP6_CKP15 (designed binder)
chain: GCNRIRNSCKQDSDCLAGCVCGRGDYCG
B16: LRP6_CKP16 (designed binder)
chain: GCSRNSIKCKQDSDCLAGCVCASGSSCG
B17: LRP6_CKP17 (designed binder)
chain: GCSNYVKRCKQDSDCLAGCVCSPGGRCG
B18: LRP6_CKP18 (designed binder)
chain: GCRANRVSGRCKQDSDCLAGCVCGPNGFCG
B19: LRP6_CKP19 (designed binder)
chain: GCSNRVKVRACKQDSDCLAGCVCGPNGFCG
B20: LRP6_CKP20 (designed binder)
chain: GCENRTKGCKQDSDCLAGCVCGFRGTCG
B21: LRP6_CKP21 (designed binder)
chain: GCGNKIRACKQDSDCLAGCVCRDRVGCG
B22: LRP6_CKP22 (designed binder)
chain: GCANRVKRTSCKQDSDCLAGCVCGPNGFCG
B23: VEGF_CKP7.35 (designed binder)
chain: GCQDPTFNWAEYCKQDSDCLAGCVCQMYQSCG
B24: VEGF_CKP3 (designed binder)
chain: GCHMMYDYCKQDSDCLAGCVCEMYDACG
B25: VEGF_CKP7.43 (designed binder)
chain: GCQDPTLNWATYCKQDSDCLAGCVCQMYQSCG
B26: VEGF_CKP7.50 (designed binder)
chain: GCQDPSLNWADYCKQDSDCLAGCVCQMHQSCG
B27: VEGF_CKP7.54 (designed binder)
chain: GCLDRTLNWALYCKQDSDCLAGCVCQMYNSCG
B28: VEGF_CKP7.57 (designed binder)
chain: GCLDPSFNWSLYCKQDSDCLAGCVCQMYDSCG
B29: VEGF_CKP7.73 (designed binder)
chain: GCRDLTINWALFCKQDSDCLAGCVCQMFNSCG
B30: VEGF_CKP7.78 (designed binder)
chain: GCKDTTFNWGLFCKQDSDCLAGCVCQLYQSCG
B31: VEGF_CKP7.81 (designed binder)
chain: GCLDPTVNWALFCKQDSDCLAGCVCQHYKTCG
B32: VEGF_CKP7.88 (designed binder)
chain: GCQDPKLNWAVYCKQDSDCLAGCVCQLFNSCG
B33: LRP6_CKP7.89 (designed binder)
chain: GCLDPSFDWALYCKQDSDCLAGCVCQLYNSCG
B34: 9.63-4 (designed binder)
chain: GCDVMQPYWGCEMDFDCLAGCICHWYNSCGFS
B35: 9.63-20 (designed binder)
chain: GCDVMQPYWGCEMDFDCLAGCICHWYNSCGQV
B36: 9.63-22 (designed binder)
chain: GCDVMQPYWGCEMDFDCLAGCICHWYNSCGYA
B37: 9.63-25 (designed binder)
chain: GCDVMQPYWGCEMDFDCLAGCICHWYNSCGSR
B38: 9.63-67 (designed binder)
chain: GCDVMQPYWGCEMDFDCLAGCVCHWYNSCGGI
B39: 9.63-70 (designed binder)
chain: GCDVMQPYWGCEMDFDCLAGCVCHWYNSCGPL
B40: 9.63-72 (designed binder)
chain: GCDVMQPYWGCEMDFDCLAGCICHWYNSCGTS
B41: 9.63-79 (designed binder)
chain: GCDVMQPYWGCEMDFDCLAGCICHWYNSCGLQ
B42: 9.63.44-1 (designed binder)
chain: GCDVMQPYWGCEMDFDCLAGCICHWYNSCGFS
B43: 9.63.44-2 (designed binder)
chain: GCDVMQPYWGCEMDFDCLAGCICHWYNSCGQV
B44: 9.63.44-3 (designed binder)
chain: GCDVMQPYWGCEMDFDCLAGCICHWYNSCGYA
B45: 9.63.44-4 (designed binder)
chain: GCDVMQPYWGCEMDFDCLAGCICHWYNSCGSR
B46: 9.63.44-7 (designed binder)
chain: GCDVMQPYWGCEMDFDCLAGCVCHWYNSCGGI
B47: 9.63.44-8 (designed binder)
chain: GCDVMQPYWGCEMDFDCLAGCICHWYNSCGTS
B48: 9.63.44-9 (designed binder)
chain: GCDVMQPYWGCEMDFDCLAGCICHWYNSCGLQ
B49: 9.63.44-10 (designed binder)
chain: GCDVMQPYWGCEMDFDCLVGCVCHWYNSCGDE
B50: 9.63.44-10-A (designed binder)
chain: GCDVMQPYWGCEMDFDCLAGCVCHWYNSCGGI
B51: 9.63.44-12 (designed binder)
chain: GCDVMQPYWGCEMDFDCLAGCVCHWYNSCGPL
B52: 9.63.44-13 (designed binder)
chain: GCDVMQPYWGCEMDFDCLAGCVCHWYNSCGQF
B53: VEGF_CKP9.54.90.12 (designed binder)
chain: GCNIMLPFWGCGRDFECMSDCICQYYQSCG
B54: VEGF_CKP9.54.90.13 (designed binder)
chain: GCNIMLPFWGCGRDFECMNQCICQYYQSCG
B55: VEGF_CKP9.54.90.25 (designed binder)
chain: GCNIMLPFWGCGRDFECMQTCICQYYQSCG

What follows are binders tested against LRP6 E1E2 protein (human) (UniProt O75581) (assay: spot phage ELISA).
Sequence of LRP6 E1E2 protein (human) (O75581 20-630 limits assumed): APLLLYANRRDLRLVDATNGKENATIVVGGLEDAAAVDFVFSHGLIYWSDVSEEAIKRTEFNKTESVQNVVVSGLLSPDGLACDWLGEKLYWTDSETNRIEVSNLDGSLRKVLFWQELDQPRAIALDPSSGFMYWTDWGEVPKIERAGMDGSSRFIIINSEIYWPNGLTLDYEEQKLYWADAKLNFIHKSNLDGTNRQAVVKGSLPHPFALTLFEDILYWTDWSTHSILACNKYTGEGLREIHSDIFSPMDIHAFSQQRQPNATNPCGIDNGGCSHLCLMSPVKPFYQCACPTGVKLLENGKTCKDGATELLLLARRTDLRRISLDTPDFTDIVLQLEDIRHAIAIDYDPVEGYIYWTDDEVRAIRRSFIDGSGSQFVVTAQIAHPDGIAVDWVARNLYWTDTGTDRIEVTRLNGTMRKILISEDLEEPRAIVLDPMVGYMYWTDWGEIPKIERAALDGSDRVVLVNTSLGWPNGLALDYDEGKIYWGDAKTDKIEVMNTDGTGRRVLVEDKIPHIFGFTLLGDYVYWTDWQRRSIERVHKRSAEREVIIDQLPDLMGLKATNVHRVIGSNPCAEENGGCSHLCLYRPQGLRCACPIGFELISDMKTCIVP
B1 gave an ELISA of 3.23 and a S/N of 45.5.
B2 was tested, and the ELISA was 3.41 and the S/N was 41.6.
B3 showed an ELISA of 2.93 and a S/N of 40.2.
Work on B4 yielded an ELISA of 2.82 and a S/N of 25.4.
Binder B5 has an ELISA of 3.04 and a S/N of 35.7.
B6 gave a S/N of 37.4.
B7 showed an ELISA of 3.3 and a S/N of 29.
With B8 the ELISA was 3.23 and the S/N was 37.6.
For B9, the ELISA was 2.97 and the S/N was 37.6.
Work on B10 yielded an ELISA of 3.29 and a S/N of 37.4.
For B11, the ELISA was 2.65 and the S/N was 36.8.
Binder B12 has an ELISA of 0.6 and a S/N of 6.78.
Binder B13 has an ELISA of 3.28 and a S/N of 37.8.
B14 showed an ELISA of 3.18 and a S/N of 43.5.
With B15 the ELISA was 2.03 and the S/N was 26.3.
B16 gave an ELISA of 3.36 and a S/N of 31.1.
In the case of B17, the ELISA is reported as 3.09 and the S/N is reported as 35.9.
B18 showed an ELISA of 1.67 and a S/N of 18.3.
B19 showed an ELISA of 3.27 and a S/N of 42.
B20 was tested, and the ELISA was 3.1 and the S/N was 38.7.
B21 showed an ELISA of 2.8 and a S/N of 33.7.
In the case of B22, the ELISA is reported as 3.43 and the S/N is reported as 42.9.

What follows are binders tested against T1, hVEGF-A (8-109) (assay: spot phage ELISA).
Binder B23 has an ELISA of 0.6 and a S/N of 10.6.
With B24 the ELISA was 3.1 and the S/N was 42.9.
B25 gave an ELISA of 0.5 and a S/N of 6.3.
B26 showed an ELISA of 0.8 and a S/N of 14.3.
In the case of B27, the ELISA is reported as 0.5 and the S/N is reported as 9.3.
B28 gave an ELISA of 1 and a S/N of 17.4.
B29 was tested, and the ELISA was 1.2 and the S/N was 19.2.
For B30, the ELISA was 0.7 and the S/N was 11.8.
B31 gave an ELISA of 1.1 and a S/N of 18.6.
Binder B32 has an ELISA of 0.5 and a S/N of 7.7.
Binder B33 has an ELISA of 0.5 and a S/N of 8.1.
B34: binds.
B35: binds.
B36: binds.
B37: binds.
B38: binds.
B39: binds.
B40: binds.
B41: binds.
B42: binds.
B43: binds.
B44: binds.
B45: binds.
B46: binds.
B47: binds.
B48: binds.
B49: binds.
B50: binds.
B51: binds.
B52: binds.

These binders were tested against T2, human VEGF-A (assay: cell-based or functional assay).
B53 showed a Cellular IC50 of 1.2 nM and a fold improvement relative to variant 9.54.90 (cellular IC50) of 1.12 fold.
With B54 the Cellular IC50 was 0.96 nM and the fold improvement relative to variant 9.54.90 (cellular IC50) was 1.41 fold.
Binder B55 has a Cellular IC50 of 1.26 nM and a fold improvement relative to variant 9.54.90 (cellular IC50) of 1.07 fold.
